Laboratory results published in the supplement of paper PMC10567573.

B1: MLL5 (parent)
chain: EQIAERKRKMVSWEASSLGLVTAA
B2: LRRC45 (parent)
chain: DLSAANEKNLLLQNQVDELERKFR

Variants of: B1
Assay: protein stability index of a GFP-peptide fusion (GPS, HEK-293T) (PSI 1-6); higher = more stable
Details: c terminus: a fixed tail appended
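Also: lentivirally expressed fusions sorted by FACS into six bins by GFP to DsRed ratio, PSI derived from sequencing read proportions per bin multiplied by bin number.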

Protein stability index of substitutions, site by site:
R8: V 2.65, W 2.72, Y 2.86
K9: A 2.52, C 1.53, E 3.52, F 2.06, G 3.73, H 1.76, I 2.34, L 2.27, M 2.38, N 3.84, Q 2.59, R 3.06, S 3.51, T 2.31, V 2.46, W 1.88, Y 2.97
M10: A 3.83, C 3.29, D 4.4, E 4.23, F 2.93, G 4.16, H 3.44, I 2.81, K 3.7, L 3.56, N 3.5, Q 3.95, R 4.01, S 3.69, T 3.55, V 2.82, Y 2.89
V11: C 2.87, D 2.81, E 4.18, F 2.63, G 3.39, H 3.24, L 2.63, M 2.54, P 3.55, Q 3.16, S 2.99, T 2.87, W 3.34, Y 3.14
S12: A 3.35, C 2.36, D 2.85, E 3.92, F 2.16, H 2.35, K 2.59, L 2.37, M 3.36, N 3.19, P 2.59, Q 2.33, R 3.36, V 2.68, Y 2.22
W13: A 4.19, D 4.67, E 4.77, G 4.82, H 3.97, K 3.85, L 3.86, M 3.07, N 4.02, P 4.38, Q 4.56, S 4.33, T 3.77, V 4, Y 3.29
E14: A 2.8, C 2.49, D 2.07, F 1.97, G 2.2, H 2.85, I 2.22, L 2.95, M 2.24, N 3.39, P 2.44, Q 2.32, R 2.31, S 2.47, T 3, V 1.97, Y 2.52
A15: C 2.28, E 3, F 2.08, H 3, I 2.56, K 2.74, L 2.32, M 2.64, N 2.67, P 3.77, Q 2.93, R 3.98, S 2.94, V 2.56, W 1.84, Y 2.26
S16: A 3.11, C 2.59, D 2.86, E 3.02, H 1.57, I 1.94, K 3.23, L 1.99, P 3, Q 3.05, R 3.57, T 2.77, V 2.29, W 1.77
S17: A 2.77, C 1.44, D 2.98, E 3.41, F 1.37, G 3.12, H 2.7, K 3.54, L 3.15, M 1.54, N 2.71, P 3.46, Q 3.08, T 2.98, V 2.31, W 1.76, Y 2.43
L18: A 3.31, C 2.97, D 4.24, E 4.66, F 2.43, G 3.48, H 2.97, I 1.91, K 3.86, M 3.16, N 3.52, P 3.4, Q 3.72, R 3.01, S 1.92, T 3.5, V 2.53, Y 2.77
G19: A 2.1, C 2.38, D 3.32, E 3.71, H 2.68, K 3.09, M 2.65, N 2.95, Q 3.49, R 3.16, S 3.84, T 3.25, V 2.9, W 1.74, Y 1.84
L20: C 3.71, D 3.82, E 4.3, F 3.35, H 3.54, I 3.77, K 3.9, N 3.62, P 3.72, Q 3.47, S 4.99, T 3.87, V 3.37, W 2.42, Y 2.68
V21: A 3.23, C 3.05, D 3.55, E 2.73, F 2.38, G 3.4, H 2.82, I 3.15, L 2.76, M 3.32, N 3.22, P 2.44, Q 3.22, R 2.96, S 3.68, T 3.62, W 2.86
T22: A 3.33, D 3.63, E 3.63, F 1.83, H 2.85, I 1.62, K 2.54, L 2.18, M 2.63, N 3.21, Q 3.73, S 2.92, V 3.58, W 1.79, Y 2.57
A23: C 3.12, D 3.98, E 3.96, F 1.58, I 3.23, K 3.27, M 3.11, N 2.31, P 3.41, Q 2.31, R 2.63, S 2.68, T 2.31, W 2.08, Y 2.28
A24: C 2.39, D 4.11, E 4.38, F 2.29, H 3.17, K 2.4, N 3.25, Q 3.39, S 3.57, V 3.04, Y 2.1

Variants of: B2
Assay: as above
Details: c terminus: a fixed tail appended

Protein stability index, by site and new letter:
L10: D 4.86, K 4, I 3.58, W 3.89, T 4.26
F23: W 3.13, M 4.63
A5: W 3.34, N 3.18, Y 3.87, M 3.62, G 4.22, T 3.91
D17: N 3.52, A 3.58
E18: Y 3.26, H 3.35, G 3.67, T 3.7, A 3.57
K8: H 4.06, E 4.56, S 4.36, C 3.83
E7: L 2.96, Q 3.63, R 3.84, P 4.31, M 3.14, T 3.69
N6: P 4.62, H 4.27
E20: Q 3.47, H 3.35, N 3.27
K22: Y 3.34, I 3.01, A 4.27, M 3.34
A4: L 3.06, P 4.11, S 4.05
N14: E 4.19, P 3.69, Y 3.65, H 3.62
L12: G 4.03, M 3.87, V 4.36, H 4
D1: V 4.34, H 4.42, A 4.6
L2: S 4.86, P 4.67, V 3.89, E 5.13
Q15: H 4.04, F 2.32, I 3.38, R 3.5
L11: M 3.56, H 4.59, E 4.84
S3: A 4.44, N 4.07
Q13: E 4.71, W 3.3, L 3.96
R21: G 4.49, K 3.93, C 3.74, P 4.2
L19: G 4.41, W 3.75, Q 3.99, A 4.58
N9: D 4.91, M 4.24
V16: Y 3.6, E 4.72, F 3.38
R24: Y 4.17
